Measured values reported in patent US20250009876A1 (H LUNDBECK A S, published 2025).
Where a chain is given by its changes, count along the chain named.

T1: PACAP38 (Pituitary Adenylate Cyclase-Activating Polypeptide, 38 amino acids) (human, not fully specified; the C-terminal lysine is amidated)
T1 peptide: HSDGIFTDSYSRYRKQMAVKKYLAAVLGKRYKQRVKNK

T2: PACAP27 (Pituitary Adenylate Cyclase-Activating Polypeptide, 27 amino acids) (human, the C-terminal leucine is amidated)
T2 peptide: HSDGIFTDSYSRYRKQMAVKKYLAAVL

T3: PAC1-R on PAC1-R-expressing PC-12 cells (UniProt P32215 20-523)
T3 construct: whole, on cells; also called PAC1 receptor
T3 sequence (looked up): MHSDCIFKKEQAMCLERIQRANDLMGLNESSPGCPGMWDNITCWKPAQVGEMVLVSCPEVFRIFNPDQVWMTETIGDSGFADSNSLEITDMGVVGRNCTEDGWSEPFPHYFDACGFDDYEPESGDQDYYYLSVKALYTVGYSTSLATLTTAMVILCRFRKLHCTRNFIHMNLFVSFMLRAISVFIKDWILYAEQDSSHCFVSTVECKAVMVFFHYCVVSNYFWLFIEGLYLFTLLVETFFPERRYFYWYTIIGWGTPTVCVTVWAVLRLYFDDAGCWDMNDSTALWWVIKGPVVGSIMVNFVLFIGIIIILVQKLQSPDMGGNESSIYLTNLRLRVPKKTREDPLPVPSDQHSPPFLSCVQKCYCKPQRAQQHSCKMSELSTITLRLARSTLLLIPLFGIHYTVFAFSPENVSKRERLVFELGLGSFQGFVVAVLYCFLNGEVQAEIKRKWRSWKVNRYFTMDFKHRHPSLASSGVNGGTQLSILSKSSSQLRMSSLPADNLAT

B1: Ab10 (antibody, human IgG1, kappa, N297A, V domains shown)
VH: QSVEESGGRLVTPGTPLTLTCTVSGIDLNSYYMTWVRQAPGKGLEWIGFIDAGGDAYYASWAKGRFTISKTSTTVDLKITSPTTEDTATYFCARDLDLWGQGTLVTVSS
VL: AAVLTQTPSPVSAAVGGTVTINCQSSESVYGNYLAWFQQKPGQPPKLLIYEASKLESGVPSRFSGSGSGTQFTLTISDLQCDDAATYYCAGGDISEGVAFGGGTEVVVKR
notes: Full-length anti-PACAP antibody; rabbit variable regions cloned onto human constant regions (rabbit/human chimeric), expressed in HEK-293
B2: Ab10.H (antibody, human IgG1, kappa, N297A)
heavy: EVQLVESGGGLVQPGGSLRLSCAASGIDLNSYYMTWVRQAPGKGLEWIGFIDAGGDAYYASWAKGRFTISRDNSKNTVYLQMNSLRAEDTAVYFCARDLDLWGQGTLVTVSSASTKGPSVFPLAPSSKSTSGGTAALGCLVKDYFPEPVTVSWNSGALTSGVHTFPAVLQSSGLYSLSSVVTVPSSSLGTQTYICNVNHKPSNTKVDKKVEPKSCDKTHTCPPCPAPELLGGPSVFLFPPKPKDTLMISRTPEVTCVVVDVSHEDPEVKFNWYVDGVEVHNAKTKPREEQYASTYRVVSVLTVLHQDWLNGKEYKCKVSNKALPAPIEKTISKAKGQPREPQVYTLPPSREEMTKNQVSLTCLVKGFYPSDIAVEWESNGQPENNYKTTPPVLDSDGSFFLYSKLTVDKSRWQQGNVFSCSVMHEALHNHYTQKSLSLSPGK
light: DAQLTQSPSTLSASVGDRVTITCQSSESVYGNYLAWFQQKPGKAPKFLIYEASKLESGVPSRFSGSGSGTEFTLTISSLQPDDFATYYCAGGDISEGVAFGGGTKVEIKRTVAAPSVFIFPPSDEQLKSGTASVVCLLNNFYPREAKVQWKVDNALQSGNSQESVTEQDSKDSTYSLSSTLTLSKADYEKHKVYACEVTHQGLSSPVTKSFNRGEC
notes: Full-length humanized variant of Ab10
B3: Ab20 (antibody, human IgG1, kappa, N297A, V domains shown)
VH: B1 VH with N29S, T34S, A52T, G53D, D55S, S60T, Q101P
VL: B1 VL with T20S, N22S, G31S, L47F, E56A, S64K, L79V, A85G, D93Y, I94S
notes: Full-length anti-PACAP antibody; rabbit/human chimeric

Target: T1, PACAP38 (Pituitary Adenylate …)
Assay: cell-based or functional assay

For B1, which “Inhibition of 0.1 nM PACAP38-induced PAC1-R mediated cAMP increase IC50 (pM)” value is on record?
Its value is 180 pM.

B2 was tested. Which “Inhibition of 0.1 nM PACAP38-induced PAC1-R mediated cAMP increase IC50 (pM)” value did it give?
Its value is 163 pM.

B3 was tested. Which “Inhibition of 0.1 nM PACAP38-induced PAC1-R mediated cAMP increase IC50 (pM)” value did it give?
Its value is 368 pM.

Target: T2, PACAP27 (Pituitary Adenylate …)
Assay: cell-based or functional assay

With B1 as the binder, how does the “Inhibition of 0.1 nM PACAP27-induced PAC1-R mediated cAMP increase IC50 (pM)” value read?
Its value is 227 pM.

For B2, which “Inhibition of 0.1 nM PACAP27-induced PAC1-R mediated cAMP increase IC50 (pM)” value is on record?
Its value is 84 pM.

B3 was tested. Which “Inhibition of 0.1 nM PACAP27-induced PAC1-R mediated cAMP increase IC50 (pM)” value did it give?
The value was 188 pM.

Target: T1, PACAP38 (Pituitary Adenylate …)
Assay: cell-based or functional assay
Remark: another data set of the same source

B1 was tested. Which “Inhibition of 5 nM PACAP38-induced human VPAC1-R mediated cAMP increase IC50 (pM)” value did it give?
The value was 649 pM.

Which “Inhibition of 5 nM PACAP38-induced human VPAC1-R mediated cAMP increase IC50 (pM)” value does the source give for B2 here?
The value was 1340 pM.

With B3 as the binder, how does the “Inhibition of 5 nM PACAP38-induced human VPAC1-R mediated cAMP increase IC50 (pM)” value read?
Its value is 3890 pM.

Target: T1, PACAP38 (Pituitary Adenylate …)
Assay: cell-based or functional assay
Remark: another data set of the same source

Which “Inhibition of 1 nM PACAP38-induced human VPAC2-R mediated cAMP increase IC50 (pM)” value does the source give for B1 here?
The value was 188 pM.

For B2, which “Inhibition of 1 nM PACAP38-induced human VPAC2-R mediated cAMP increase IC50 (pM)” value is on record?
Its value is 988 pM.

B3 was tested. Which “Inhibition of 1 nM PACAP38-induced human VPAC2-R mediated cAMP increase IC50 (pM)” value did it give?
The value was 14600 pM.

Target: T1, PACAP38 (Pituitary Adenylate …)
Assay: SPR (ProteOn XPR36), antibody amine-coupled, peptide analyte, 1:1 Langmuir fit
How it was run: (§1)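 Antibody amine-coupled to GLC or GLM chips; peptide antigen injected at 1.23 nM to 100 nM, association 2-4 min, dissociation 3-120 min. Sensorgrams fitted to a 1:1 Langmuir model; surfaces regenerated with 0.85% phosphoric acid between analytes.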

With B1 as the binder, how does the Kd read?
The Kd was 0.075 nM.

And the koff?
The koff was 2e-05 s⁻¹.

And the kon?
Its kon is 260000 M⁻¹ s⁻¹.

For B2, which Kd is on record?
Its Kd is at most 0.029 nM.

What about the koff of the same binder?
The koff was at most 1e-05 s⁻¹.

And the kon?
Its kon is 340000 M⁻¹ s⁻¹.

Which results are given for B3?
Kd: 0.21 nM; koff: 2.4e-05 s⁻¹; kon: 120000 M⁻¹ s⁻¹

Target: T2, PACAP27 (Pituitary Adenylate …)
Assay: as above
How it was run: as §1

Which Kd does the source give for B1 here?
The Kd was at most 0.01 nM.

What about the koff of the same binder?
The koff was at most 1e-05 s⁻¹.

What about the kon of the same binder?
Its kon is 1e+06 M⁻¹ s⁻¹.

Which results are given for B2?
Kd: 0.033 nM; koff: 1.8e-05 s⁻¹; kon: 530000 M⁻¹ s⁻¹

What does the source list for B3?
Kd: 0.07 nM; koff: 2.2e-05 s⁻¹; kon: 320000 M⁻¹ s⁻¹

Each binder was assayed against T3, PAC1-R on PAC1-R-expressing PC-12 cells (assay: cell surface binding assay (DELFIA TRF): antibody pre-incubated with PACAP38, added to PAC1-R-expressing PC-12 cells, detected with Eu anti-human IgG).

Does B1 bind?
Result: no binding (tested: about 5000 nM)

Does B2 bind?
Result: no binding (tested: about 70 nM)

Does B3 bind?
Result: no binding (tested: about 500 nM)
